B1: CTLA4 heavy chain single domain antibody No. 155 (VHH)
VHH: QVQLQESGGGPVQAGGSLRLSCAVSKYPYSGSCMGWFRQAPGKEREGVAAMFTGTGSTYYADSVKGRFTISQNVAKNTLDLQMNSLKPEDTAMYYCAVDLLPRSTRCLDYGLRTYNYWGQGTQVTVSS
notes: Camel VHH expressed in E. coli (PET32b), nickel-purified
B2: CTLA4 heavy chain single domain antibody No. C27 (VHH)
VHH: QVQLQESGGGSVQAGGSLRLSCAASGYIYSAYCMGWFRQAPGKERVGVAAISIGGGSTYYADSVKGRFTISQDNAKNTLYLQMNSLKPEDTAMYYCAADVIPTETCLGGSWSGPFGYWGQGTQVTVSS
notes: as for B1
B3: CTLA4 heavy chain single domain antibody No. C1 (VHH)
VHH: B2 VHH with R19G, V46E, S52Y, I53L, N74I, Y95S
notes: Camel VHH expressed in E. coli (PET32b), nickel-purified, detected by anti-His tag antibody
B4: CTLA4 heavy chain single domain antibody No. 145 (VHH)
VHH: QVQLQESGGGSVQAGGSLRLSCAASGYTYSSYSMGWFRQAAGKEREGVAAIDSDGSTSYADSVKGRFTISQDNAKNTLYLQMNSLEPEDTAMYYCAATAGWYAARHALSPLFFGYWGQGTQVTVSS
notes: as for B1

Numbering of substitutions follows the chain as printed.

One assay concerns the target T1, CTLA4-Fc fusion protein (human, biotinylated where used as CTLA4-Fc-Biotin (Examples 5.1-5.3)).
T1 construct: expressed in HEK293 cells; also called human CTLA4-Fc protein; CTLA4-Fc antigen protein
Put plainly: ELISA, CTLA4-Fc coated, 10 ng VHH/well. The method, then:
(§1) Plates were coated with CTLA4-Fc fusion protein overnight at 4° C. and 10 ng of the heavy chain single-domain antibody obtained in Example 2.1 (the control was a single domain antibody not binding to the CTLA4-Fc protein) was added to each well and allowed to react for 1 hour at room temperature. After washing, primary antibody anti-His tag antibody (purchased from Beijing Kangwei Century Biotechnology Co., Ltd.) was added and reacted for 1 hour at room temperature. After washing, a secondary goat anti-mouse horseradish peroxidase-labeled antibody (Yiqiao Shenzhou, Cat: SSA007200) was added and reacted for 1 hour at room temperature. After washing, chromogenic agent was added and the absorbance was read at 405 nm.
A general note: ELISA stands for enzyme-linked immunosorbent assay.
As for B1, the “OD (against CTLA4)” value was 1.72 OD405.
The same measure, in the same setting: the value for B2 was 1.31 OD405; that for B3 was 1.2 OD405; that for B4 was 1.49 OD405.

The next assay addresses T2, Fc protein.
T2 construct: Counter-screen for the Fc part of CTLA4-Fc
Put plainly: ELISA, Fc protein coated, 10 ng VHH/well. Here is the method: (§2) Plates were coated with Fc protein overnight at 4° C. and 10 ng of the heavy chain single domain antibody obtained in Example 2.1 was added to each well (control was a single domain antibody against other unrelated targets) and allowed to react for 1 hour at room temperature. After washing, an rabbit anti-human Fc antibody (purchased from Shanghai Pu Xin Biotechnology Co., Ltd.) was added and reacted for 1 hour at room temperature. After washing, goat anti-rabbit horseradish peroxidase labeled antibody (purchased from Shanghai Pu Xin Biotechnology Co., Ltd.) was added and reacted at room temperature for 1 hour. After washing, chromogenic agent was added and the absorbance was read at 405 nm.
As to B1, the “OD (against Fc)” value came out at 0.051 OD405.
On to B2, for which the “OD (against Fc)” value turned out to be 0.049 OD405.
Still for that read-out and setting: the value for B3 was 0.053 OD405.
The same measure, in the same setting: the value for B4 was 0.065 OD405.

Another assay addresses T3, Mouse CTLA4-Fc protein (mouse, biotinylated (mCTLA4-Fc-Biotin)).
T3 construct: also called mCTLA4-Fc-Biotin; mouse CTLA4-Fc fusion protein
As to the kind of experiment: ELISA, VHH coated 0.5 µg/well, mCTLA4-Fc-Biotin, SA-HRP. The method, then:
(§3) Thereafter, SA-HRP (purchased from Sigma) was added, and the mixture was reacted at room temperature for 1.5 hours. After washing, chromogenic agent was added and the absorbance was read at 405 nm.
Regarding B1, the binding result is “no binding”.
Still for that read-out and setting: the value for B2 was “no binding”; that for B3 was “no binding”; that for B4 was “no binding”.

Another assay deals with T1, CTLA4-Fc fusion protein. As to the kind of experiment: ELISA OD ratio, value equals OD(CTLA4)/OD(Fc). The method, then:
as §1, §2
As to B1, the ODa/OD blank was determined as 33.8.
Same read-out and setting: the value for B2 was 26.7; that for B3 was 22.7; that for B4 was 22.9.

In a further assay the target is T1, CTLA4-Fc fusion protein. Put plainly: ELISA OD ratio, value equals OD(CTLA4)/OD(blank). The method, then: as §1
In the case of B1, the ODa/ODb came to 61.6.
As for B2, the ODa/ODb came out at 46.8.
As to B3, the ODa/ODb stood at 42.9.
The same measure, in the same setting: the value for B4 was 53.1.

The target of a further assay is T1, CTLA4-Fc fusion protein. Put plainly: competitive ELISA, CTLA4-Fc coated, VHH series with 250 ng/mL CD80-Fc-Biotin. The method, then: (§4) SA-HRP (purchased from Sigma) was added and allowed to react for 1 hour at room temperature. After adding chromogenic solution, absorbance was read at 405 nm wavelength.
As for B1, the IC50 was roughly 4.69 µg/mL.
In turn, B2 gave an IC50 of roughly 0.731 µg/mL.
The molecule B3 gave an IC50 of 0.852 µg/mL.
With B4, the IC50 is roughly 1.95 µg/mL.

A further assay deals with T3, Mouse CTLA4-Fc protein. As to the kind of experiment: ELISA, VHH coated 0.5 µg/well, mouse CTLA4-Fc (biotinylated), SA-HRP; blank 0.027. Here is the method:
as §3
For B1, the “OD (against mouse CTLA4)” value was 0.032 OD405.
As for B2, the “OD (against mouse CTLA4)” value was determined as 0.021 OD405.
On the same count and under the same terms, the value for B3 was 0.042 OD405; that for B4 was 0.026 OD405.

The next assay addresses T1, CTLA4-Fc fusion protein. Put plainly: ELISA, VHH coated 0.5 µg/well, dilution series of CTLA4-Fc, anti-human IgG-Fc HRP; antibody No. C1. The method, then:
(§5) The plates were coated with the obtained CTLA4 heavy chain single-domain antibody at 0.5 μg/well overnight at 4° C. followed by addition of a gradient dilution series of CTLA4-Fc fusion protein and allowed to react for 1 hour at room temperature. After washing, goat anti-human IgG-Fc horseradish peroxidase labeled antibody (lakepharma) was added and allowed to react for 1 hour at room temperature. After washing, horseradish peroxidase c chromogenic solution was added and the absorbance was read at a wavelength of 405 nm.
In turn, B3 showed an EC50 of roughly 0.123 µg/mL.

A further assay addresses T1, CTLA4-Fc fusion protein. Put plainly: ELISA, VHH coated 0.5 µg/well, dilution series of CTLA4-Fc, anti-human IgG-Fc HRP; antibody No. 155. Here is the method: as §5
In turn, B1 registered an EC50 of roughly 0.013 µg/mL.

The target in the next assay is T1, CTLA4-Fc fusion protein. Put plainly: ELISA, VHH coated 0.5 µg/well, dilution series of CTLA4-Fc, anti-human IgG-Fc HRP; antibody No. C27. Here is the method:
as §5
B2 came in with an EC50 of roughly 0.093 µg/mL.

A further assay deals with T1, CTLA4-Fc fusion protein. Put plainly: competitive ELISA: CD80-Fc-Biotin signal on coated CTLA4-Fc with 500 ng VHH/well; competitor CD80-Fc-Biotin. Here is the method: as §4
The molecule B1 yielded an OD of 0.746 OD405.
The same measure, in the same setting: the value for B2 was 0.04 OD405; that for B3 was 0.054 OD405.
Same read-out and setting: the value for B4 was 0.597 OD405.

The next assay deals with T1, CTLA4-Fc fusion protein. Put plainly: ELISA, VHH coated 0.5 µg/well, dilution series of CTLA4-Fc, anti-human IgG-Fc HRP; antibody No. 145 (printed as No. 14). The method, then: as §5
In the case of B4, the EC50 was roughly 0.05 µg/mL.

For orientation: IC50 means the point on the concentration scale where inhibition reaches its midpoint. Low readings indicate greater potency in that assay, high ones weaker potency in that assay. A word on the EC50: it is the concentration that produces a half-maximal response. A low value points to an effect from little substance.

Source of the values: patent publication US20190315864A1 (SUZHOU ALPHAMAB, published 2019).
